Publication PMC11772548, “A Complex Interplay Between Melatonin and RORβ: RORβ is Unlikely a Putative Receptor for Melatonin as Revealed by Biophysical Assays” (Molecular Neurobiology, 2024)

Target: ligand-binding domain (LBD) of human RORβ (human, UniProt Q92753-2 250-450, Paper numbering follows the 459-aa isoform (RORβ1; Thr210, Cys262, LBD ending at the AF-2 end, 450), so +11 gives the 470-aa entry: printed 250-450 = 261-461. The paper's modelled LBD is 210-450 (= 22)
Experiment: ITC; 2 mM SRC-1 peptide titrated into 50-100 µM LBD of RORβ; 20 mM Tris-HCl pH 8.6, 2 mM CHAPS, 100 mM NaCl, 5 mM DTT; Malvern MicroCal PEAQ-ITC
Conditions: both partners purified

ligand-binding domain (LBD) of human RORβ, sequence (Q92753 250-450): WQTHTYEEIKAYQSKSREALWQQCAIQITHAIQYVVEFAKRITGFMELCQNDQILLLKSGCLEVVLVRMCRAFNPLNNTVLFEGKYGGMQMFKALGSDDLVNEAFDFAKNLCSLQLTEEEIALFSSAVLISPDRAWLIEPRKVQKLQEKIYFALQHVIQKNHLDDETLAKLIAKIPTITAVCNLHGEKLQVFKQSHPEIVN

Kd: 19.8 µM
dH: -1.1 kcal/mol
B1: SRC-1 co-activator peptide (peptide)
peptide: RHKILHRLLQEGSPS
notes: also called SRC-1 peptide; source: synthetic peptide (GenScript)
